Experimental data: US20230235027A1 (US Dept. of Health and Human Services, published 2023)
Numbering of substitutions follows the chain as printed. Several values for one entry are separate records, joined by “and”; a condition that tells them apart may be missing. Equal values may be shown once. Read-outs that look alike come from different tables or passages of the source.

Columns and labels:
[1] = target: T1, Biotinylated SARS-CoV-2 S protein RBD with a C-terminal AviTag (SARS-CoV-2, UniProt P0DTC2 319-541); test: biolayer interferometry (FIG. 7C)
[2] = target: T1, Biotinylated SARS-CoV-2 S protein RBD …
[3] = target: T2, SARS-CoV-2 spike protein receptor binding domain (RBD), recombinant (SARS-CoV-2, UniProt P0DTC2 319-541)
[4] = target: T1, Biotinylated SARS-CoV-2 S protein RBD …; remark: listed apart in the source
[5] = target: T2, SARS-CoV-2 spike protein receptor …; test: kinetic measurement, method not stated; table row prototype RBD
[6] = target: T2, SARS-CoV-2 spike protein receptor …; remark: listed apart in the source
[7] = target: T2, SARS-CoV-2 spike protein receptor …; test: competition ELISA, RBD coated, competitor biotinylated ACE2
[8] = target: T2, SARS-CoV-2 spike protein receptor …; test: direct binding to RBD wild type (FIG. 7B); format not described further
[9] = target: T2, SARS-CoV-2 spike protein receptor …; test: ELISA: coated SARS-CoV-2 RBD, NIH-CoVnb-112 titrated, absorbance 450 nm
[10] = target: T3, SARS-CoV-1 spike protein RBD (SARS-CoV-1, UniProt P59594 306-527); test: ELISA: coated SARS-CoV-1 RBD, NIH-CoVnb-112 titrated, absorbance 450 nm
T3 construct: domain: RBD

B1: VHH72 (VHH)
VHH: QVQLQESGGGLVQAGGSLRLSCAASGRTFSEYAMGWFRQAPGKEREFVATISWSGGSTYYTDSVKGRFTISRDNAKNTVYLQMNSLKPDDTAVYYCAAAGLGTVVSEWDYDYDYWGQGTQVTVSS
binding result [1]: binds

B2: NIH-CoVnb-103 (VHH, not shown: large carriers)
VHH: DVQLQESGGGLVQPGGSLRLSCAASGLTLDYYTIGWFRQAPGKEREGVSCISSSDDSTYYADSVKGRFTISRDNAKNTVYLQMNSLKPEDTAVYYCATAPGTYYKGSYYPMCHYYGMDYWGKGTQVTVSS
Kd [2]: 9.43 nM
koff [2]: 0.00286 s⁻¹
kon [2]: 303000 M⁻¹ s⁻¹

B3: NIH-CoVnb-108 (VHH, not shown: large carriers)
VHH: DVQLQESGGGLVQPGGSLRLSCAASGFTLDYYAIGWFRQAPGKEREGVSCISNSGGSTYYADSVKGRFTTSRDNAKNTVYLQMNSLKPEDTAVYYCAAVPSTYYSGSYYYTCHPGGMDYWGKGTQVTVSS
Kd [2]: 26.6 nM
koff [2]: 0.00109 s⁻¹
kon [2]: 40900 M⁻¹ s⁻¹

B4: NIH-CoVnb-112 (VHH)
VHH: B3 VHH with F27L, N53S, G55D, S107T
Kd [3]: 2.1 nM
Kd [4]: 4.9 nM
koff [4]: 0.000654 s⁻¹
kon [4]: 130000 M⁻¹ s⁻¹
koff [5]: 0.000236 s⁻¹
kon [5]: 223000 M⁻¹ s⁻¹
koff [6]: 0.000295 s⁻¹
kon [6]: 141000 M⁻¹ s⁻¹
EC50 [7]: 0.02 µg/mL and 1.11 nM
EC50 [8]: ~0.01 µg/mL
EC50 (read off the curve) [9]: ~0.01 µg/mL
binding result [10]: no binding (tested: about 5 µg/mL)

B5: NIH-CoVnb-113 (VHH)
VHH: B3 VHH with F27L, N53S, G55D, S107T, Q125L
Kd [2]: 8.19 nM
koff [2]: 0.000804 s⁻¹
kon [2]: 98200 M⁻¹ s⁻¹

B6: NIH-CoVnb-109 (VHH, not shown: large carriers)
VHH: B3 VHH with P14S, S52T, G55D, A98S, V99F
Kd [2]: 58.5 nM
koff [2]: 0.00188 s⁻¹
kon [2]: 32100 M⁻¹ s⁻¹
